{
  "source": "patent US9618524B2",
  "about": "“Method, composition, isolation and identification of a plaque particle and related biomarker” (Plaxgen Inc., priority 2012, dated 2017)",
  "molecules": {"B1": {"name": "Isoform 2 of Inter-alpha-trypsin inhibitor heavy chain H4 (protein)", "chain": "EKNGIDIYSLTVDSRVSSRFAHTVVTSRVVNRANTVQEATFQMELPKKAFITNFSMIIDGMTYPGIIKEKAEAQAQYSAAVAKGKSAGLVKATGRNMEQFQVSVSVAPNAKITFELVYEELLKRRLGVYELLLKVRPQQLVKHLQMDIHIFEPQGISFLETESTFMTNQLVDALTTWQNKTKAHIRFKPTLSQQQKSPEQQETVLDGNLIIRYDVDRAISGGSIQIENGYFVHYFAPEGLTTMPKNVVFVIDKSGSMSGRKIQQTREALIKILDDLSPRDQFNLIVFSTEATQWRPSLVPASAENVNKARSFAAGIQALGGTNINDAMLMAVQLLDSSNQEERLPEGSVSLIILLTDGDPTVGETNPRSIQNNVREAVSGRYSLFCLGFGFDVSYAFLEKLALDNGGLARRIHEDSDSALQLQDFYQEVANPLLTAVTFEYPSNAVEEVTQNNFRLLFKGSEMVVAGKLQDRGPDVLTATVSGKLPTQNITFQTESSVAEQEAEFQSPKYIFHNFMERLWAYLTIQQLLEQTVSASDADQQALRNQALNLSLAYSFVTPLTSMVVTKPDDQEQSQVAEKPMEGESRNRNVHSAGAAGSRMNFRPGVLSSRQLGLPGPPDVPDHAAYHPFRRLAILPASAPPATSNPDPAVSRVMNMKIEETTMTTQTPACPSCSRSRAPAVPAPIQAPSAILPLPGQSVERLCVDPRHRQGPVNLLSDPEQGVEVTGQYEREKAGFSWIEVTFKNPLVWVHASPEHVVVTRNRRSSAYKWKETLFSVMPGLKMTMDKTGLLLLSDPDKVTIGLLFWDGRGEGLRLLLRDTDRFSSHVGGTLGQFYQEVLWGSPAASDDGRRTLRVQGNDHSATRERRLDYQEGPPGVEISCWSVEL"}, "B2": {"name": "Cluster of Kininogen-1 (protein, UniProt P01042 19-644, looked up)", "Kininogen-1": "QESQSEEIDCNDKDLFKAVDAALKKYNSQNQSNNQFVLYRITEATKTVGSDTFYSFKYEIKEGDCPVQSGKTWQDCEYKDAAKAATGECTATVGKRSSTKFSVATQTCQITPAEGPVVTAQYDCLGCVHPISTQSPDLEPILRHGIQYFNNNTQHSSLFMLNEVKRAQRQVVAGLNFRITYSIVQTNCSKENFLFLTPDCKSLWNGDTGECTDNAYIDIQLRIASFSQNCDIYPGKDFVQPPTKICVGCPRDIPTNSPELEETLTHTITKLNAENNATFYFKIDNVKKARVQVVAGKKYFIDFVARETTCSKESNEELTESCETKKLGQSLDCNAEVYVVPWEKKIYPTVNCQPLGMISLMKRPPGFSPFRSSRIGEIKEETTVSPPHTSMAPAQDEERDSGKEQGHTRRHDWGHEKQRKHNLGHGHKHERDQGHGHQRGHGLGHGHEQQHGLGHGHKFKLDDDLEHQGGHVLDHGHKHKHGHGHGKHKNKGKKNGKHNGWKTEHLASSSEDSTTPSAQTQEKTEGPTPIPSLAKPGVTVTFSDFQDSDLIATMMPPISPAPIQSDDDWIPDIQIDPNGLSFNPISDFPDTTSPKCPGRPWKSVSEINPTTQMKESYYFDLTDGLS"}, "B3": {"name": "Kininogen-1 (protein)", "chain": "B2 Kininogen-1"}, "B4": {"name": "Apolipoprotein A-IV (protein)", "chain": "EVSADQVATVMWDYFSQLSNNAKEAVEHLQKSELTQQLNALFQDKLGEVNTYAGDLQKKLVPFATELHERLAKDSEKLKEEIGKELEELRARLLPHANEVSQKIGDNLRELQQRLEPYADQLRTQVSTQAEQLRRQLTPYAQRMERVLRENADSLQASLRPHADELKAKIDQNVEELKGRLTPYADEFKVKIDQTVEELRRSLAPYAQDTQEKLNHQLEGLTFQMKKNAEELKARISASAEELRQRLAPLAEDVRGNLRGNTEGLQKSLAELGGHLDQQVEEFRRRVEPYGENFNKALVQQMEQLRQKLGPHAGDVEGHLSFLEKDLRDKVNSFFSTFKEKESQDKTLSLPELEQQQEQQQEQQQEQVQMLAPLES"}, "B5": {"name": "Alpha-1-antichymotrypsin (protein)", "chain": "HPNSPLDEENLTQENQDRGTHVDLGLASANVDFAFSLYKQLVLKAPDKNVIFSPLSISTALAFLSLGAHNTTLTEILKGLKFNLTETSEAEIHQSFQHLLRTLNQSSDELQLSMGNAMFVKEQLSLLDRFTEDAKRLYGSEAFATDFQDSAAAKKLINDYVKNGTRGKITDLIKDLDSQTMMVLVNYIFFKAKWEMPFDPQDTHQSRFYLSKKKWVMVPMMSLHHLTIPYFRDEELSCTVVELKYTGNASALFILPDQDKMEEVEAMLLPETLKRWRDSLEFREIGELYLPKFSISRDYNLNDILLQLGIEEAFTSKADLSGITGARNLAVSQVVHKAVLDVFEEGTEASAATAVKITLLSALVETRTIVRFNRPFLMIIVPTDTQNIFFMSKVTNPKQA"}, "B6": {"name": "Isoform LMW of Kininogen-1 (protein)", "chain": "QESQSEEIDCNDKDLFKAVDAALKKYNSQNQSNNQFVLYRITEATKTVGSDTFYSFKYEIKEGDCPVQSGKTWQDCEYKDAAKAATGECTATVGKRSSTKFSVATQTCQITPAEGPVVTAQYDCLGCVHPISTQSPDLEPILRHGIQYFNNNTQHSSLFMLNEVKRAQRQVVAGLNFRITYSIVQTNCSKENFLFLTPDCKSLWNGDTGECTDNAYIDIQLRIASFSQNCDIYPGKDFVQPPTKICVGCPRDIPTNSPELEETLTHTITKLNAENNATFYFKIDNVKKARVQVVAGKKYFIDFVARETTCSKESNEELTESCETKKLGQSLDCNAEVYVVPWEKKIYPTVNCQPLGMISLMKRPPGFSPFRSSRIGEIKEETTSHLRSCEYKGRPPKAGAEPASEREVS"}, "B7": {"name": "Inter-alpha-trypsin inhibitor heavy chain H4 (protein)", "chain": "EKNGIDIYSLTVDSRVSSRFAHTVVTSRVVNRANTVQEATFQMELPKKAFITNFSMIIDGMTYPGIIKEKAEAQAQYSAAVAKGKSAGLVKATGRNMEQFQVSVSVAPNAKITFELVYEELLKRRLGVYELLLKVRPQQLVKHLQMDIHIFEPQGISFLETESTFMTNQLVDALTTWQNKTKAHIRFKPTLSQQQKSPEQQETVLDGNLIIRYDVDRAISGGSIQIENGYFVHYFAPEGLTTMPKNVVFVIDKSGSMSGRKIQQTREALIKILDDLSPRDQFNLIVFSTEATQWRPSLVPASAENVNKARSFAAGIQALGGTNINDAMLMAVQLLDSSNQEERLPEGSVSLIILLTDGDPTVGETNPRSIQNNVREAVSGRYSLFCLGFGFDVSYAFLEKLALDNGGLARRIHEDSDSALQLQDFYQEVANPLLTAVTFEYPSNAVEEVTQNNFRLLFKGSEMVVAGKLQDRGPDVLTATVSGKLPTQNITFQTESSVAEQEAEFQSPKYIFHNFMERLWAYLTIQQLLEQTVSASDADQQALRNQALNLSLAYSFVTPLTSMVVTKPDDQEQSQVAEKPMEGESRNRNVHSGSTFFKYYLQGAKIPKPEASFSPRRGWNRQAGAAGSRMNFRPGVLSSRQLGLPGPPDVPDHAAYHPFRRLAILPASAPPATSNPDPAVSRVMNMKIEETTMTTQTPAPIQAPSAILPLPGQSVERLCVDPRHRQGPVNLLSDPEQGVEVTGQYEREKAGFSWIEVTFKNPLVWVHASPEHVVVTRNRRSSAYKWKETLFSVMPGLKMTMDKTGLLLLSDPDKVTIGLLFWDGRGEGLRLLLRDTDRFSSHVGGTLGQFYQEVLWGSPAASDDGRRTLRVQGNDHSATRERRLDYQEGPPGVEISCWSVEL"}},
  "data": [
    {"tested_on": "High Density cholesterol (Chl Large) plaque particles", "assay": "Mass spectroscopy proteomics, semi-quantitative binding affinity of serum proteins (plaqueproteome, Table 2)", "parameters": "species or system human", "settings": "higher number = stronger affinity", "outline": "(§1)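 Serum or plasma from atherosclerotic subjects, diluted to 50% in PBS, was incubated with cholesterol aggregates (30 μg per 1 mL reaction) at 37° C for 1 hr. Small and large cholesterol plaque particles were sorted by flow cytometry gating, trypsin-digested and analysed by MS/MS against a human UniProt database.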", "values": [
      {"molecule": "B1", "Semi-quantitative analysis of proteins binding to different plaque particles: Chl Large": 20},
      {"molecule": "B2", "Semi-quantitative analysis of proteins binding to different plaque particles: Chl Large": 4},
      {"molecule": "B3", "Semi-quantitative analysis of proteins binding to different plaque particles: Chl Large": 3},
      {"molecule": "B4", "Semi-quantitative analysis of proteins binding to different plaque particles: Chl Large": 8},
      {"molecule": "B5", "Semi-quantitative analysis of proteins binding to different plaque particles: Chl Large": 14},
      {"molecule": "B6", "Semi-quantitative analysis of proteins binding to different plaque particles: Chl Large": 4},
      {"molecule": "B7", "Semi-quantitative analysis of proteins binding to different plaque particles: Chl Large": 20}
    ]},
    {"tested_on": "Low density cholesterol (Chl small) plaque particles", "assay": "Mass spectroscopy proteomics, semi-quantitative binding affinity of serum proteins (plaqueproteome, Table 2)", "parameters": "species or system human", "settings": "higher number = stronger affinity", "outline": "as §1", "values": [
      {"molecule": "B1", "Semi-quantitative analysis of proteins binding to different plaque particles: Chl small": 13},
      {"molecule": "B2", "Semi-quantitative analysis of proteins binding to different plaque particles: Chl small": 8},
      {"molecule": "B3", "Semi-quantitative analysis of proteins binding to different plaque particles: Chl small": 7},
      {"molecule": "B4", "Semi-quantitative analysis of proteins binding to different plaque particles: Chl small": 9},
      {"molecule": "B5", "Semi-quantitative analysis of proteins binding to different plaque particles: Chl small": 11},
      {"molecule": "B6", "Semi-quantitative analysis of proteins binding to different plaque particles: Chl small": 8},
      {"molecule": "B7", "Semi-quantitative analysis of proteins binding to different plaque particles: Chl small": 13}
    ]},
    {"molecular_target": "T1, Abeta-42 plaque particles (Homo sapiens, UniProt P05067)", "T1 construct": "Abeta 1-42", "assay": "Mass spectroscopy proteomics, semi-quantitative binding affinity of serum proteins (plaqueproteome, Table 2)", "settings": "higher number = stronger affinity", "outline": "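AD patient serum or plasma (50% in PBS) was incubated with Abeta-42 aggregates (30 μg) for 1 h at 37 °C, then stained with Thioflavin S for 30 min. Labeled particles were FACS-sorted, trypsin/Lys-C digested overnight and analyzed by MS/MS. Sequest searched human UniProt; Scaffold/Protein Prophet validated the identifications.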", "values": [
      {"molecule": "B1", "Semi-quantitative analysis of proteins binding to different plaque particles: Abeta-42": 2},
      {"molecule": "B2", "Semi-quantitative analysis of proteins binding to different plaque particles: Abeta-42": 0},
      {"molecule": "B3", "Semi-quantitative analysis of proteins binding to different plaque particles: Abeta-42": 0},
      {"molecule": "B4", "Semi-quantitative analysis of proteins binding to different plaque particles: Abeta-42": 5},
      {"molecule": "B5", "Semi-quantitative analysis of proteins binding to different plaque particles: Abeta-42": 11},
      {"molecule": "B6", "Semi-quantitative analysis of proteins binding to different plaque particles: Abeta-42": 0},
      {"molecule": "B7", "Semi-quantitative analysis of proteins binding to different plaque particles: Abeta-42": 2}
    ]},
    {"tested_on": "Tau plaque particles", "assay": "Mass spectroscopy proteomics, semi-quantitative binding affinity of serum proteins (plaqueproteome, Table 2)", "parameters": "species or system human", "settings": "higher number = stronger affinity", "outline": "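Serum or plasma proteins captured on Thioflavin S-labelled Tau plaque particles (Tau-74, Tau-275 oligomers preformed in PBS at 37° C for 2 h; 1 h co-incubation at 37° C) were isolated by FACS sorting, then tryptically digested and identified by MS/MS (Sequest, human UniProt, strict trypsin).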", "values": [
      {"molecule": "B1", "Semi-quantitative analysis of proteins binding to different plaque particles: Tau": 15},
      {"molecule": "B2", "Semi-quantitative analysis of proteins binding to different plaque particles: Tau": 1},
      {"molecule": "B3", "Semi-quantitative analysis of proteins binding to different plaque particles: Tau": 1},
      {"molecule": "B4", "Semi-quantitative analysis of proteins binding to different plaque particles: Tau": 10},
      {"molecule": "B5", "Semi-quantitative analysis of proteins binding to different plaque particles: Tau": 16},
      {"molecule": "B6", "Semi-quantitative analysis of proteins binding to different plaque particles: Tau": 1},
      {"molecule": "B7", "Semi-quantitative analysis of proteins binding to different plaque particles: Tau": 15}
    ]},
    {"molecular_target": "T2, alpha-synuclein plaque particles (Homo sapiens, UniProt P37840)", "T2 construct": "140 amino acids polypeptide", "assay": "Mass spectroscopy proteomics, semi-quantitative binding affinity of serum proteins (plaqueproteome, Table 2)", "settings": "higher number = stronger affinity", "outline": "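AD-subject plasma or serum (800 μL of 50%) mixed with 30 μg preformed alpha-synuclein aggregates for 1 h at 37 °C; Thioflavin S-positive particles isolated by flow sorting. After reduction, acrylamide alkylation and overnight tryptic digestion, serum proteins identified by MS/MS with Sequest and Scaffold.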", "values": [
      {"molecule": "B1", "Semi-quantitative analysis of proteins binding to different plaque particles: Synuclein": 12},
      {"molecule": "B2", "Semi-quantitative analysis of proteins binding to different plaque particles: Synuclein": 6},
      {"molecule": "B3", "Semi-quantitative analysis of proteins binding to different plaque particles: Synuclein": 4},
      {"molecule": "B4", "Semi-quantitative analysis of proteins binding to different plaque particles: Synuclein": 7},
      {"molecule": "B5", "Semi-quantitative analysis of proteins binding to different plaque particles: Synuclein": 20},
      {"molecule": "B6", "Semi-quantitative analysis of proteins binding to different plaque particles: Synuclein": 6},
      {"molecule": "B7", "Semi-quantitative analysis of proteins binding to different plaque particles: Synuclein": 12}
    ]}
  ]
}
